Substitutions are numbered along the chain they refer to. Values belong to the binder of their own block, whether it stands above or below them.
Tests used:
TNF-α [1] = target: T1, TNF-α (UniProt P01375 77-233, limits assumed); test: cell-based or functional assay
TNF-α [2] = target: T1, TNF-α; test: competition ELISA: sample vs plate-bound TNFRI190 for TNF-α, from IC50, relative to wild-type TNFRI171
Description: (§1) Each well was washed three times with 300 μL of washing buffer (0.05% Tween-20, PBS, pH 7.4) and incubated at room temperature for 2 hours with 300 μL of a blocking buffer (5% skim milk, PBS, pH 7.4). Then, each well was washed as mentioned above. A sample of interest was diluted to concentrations of 500 nM, 125 nM, 31 nM, 7.8 nM, 1.9 nM, 0.48 nM, 0.12 nM, and 0.03 nM in series and loaded in an amount of 100 μL into each well in duplicate. To each well was added 100 μL of 50 ng/ml TNF-α, followed by incubation at room temperature for 2 hours. After the wells were washed with a washing buffer, 100 μg/mL anti-TNF-α antibody solution was diluted 1/1000, added in an amount of 100 μL per each well, and incubated at room temperature for 2 hours. After the plates were washed with a washing buffer, a substrate was added in an amount of 100 μL to each well and reacted at room temperature for 15 min. In each well, 100 μL of the substrate 3,3′,5,5′-tetramethylbenzidine (RnD, Cat. No: DY999) was reacted at room temperature for 15 min, followed by adding 50 μL of 1.0 M sulfuric acid (Samchun Chemical, Cat. No: 52129) to each well to stop the reaction.
(§2) The affinity of the Met-TNFRI for TNF-α was assayed using the same procedure as in [Experimental Example 1]

TNF-α [3] = target: T1, TNF-α; test: competition ELISA: sample vs plate-bound TNFRI190 for TNF-α, from IC50, relative to wild-type TNFRI105
Description: as §1, §2

B2: TNFRI105-S31 (receptor)
chain: MDSVCPQGKYIHPQNNSICCTKCHKGTYVYNDCPGPGQDTDCRECESGSFTAIENFLPACLSCSKCRKEMGQVEISSCTVDRDTVCGCRKNQYRHYWSENLFQCFN
notes: Met-TNFRI105 superlead mutant made in E. coli
Relative Affinity for Ligand (%) (TNF-α [3]): 453%

B5: Met-TNFRI105 (receptor)
chain: B2 chain with V29L, I53S, F56H, P58R, A59H
notes: also called Wild-type (TNFRI105)
Relative Affinity for Ligand (%) (TNF-α [3]): 100%

B7: TNFRI105-S47 (receptor)
chain: B2 chain with I53M, A59G
notes: as for B2
Relative Affinity for Ligand (%) (TNF-α [3]): 497%

Further lines, with some results ahead:

Relative Affinity for Ligand (%) (TNF-α [2]): 100%
B1: Met-TNFRI171 (receptor)
chain: MDSVCPQGKYIHPQNNSICCTKCHKGTYLYNDCPGPGQDTDCRECESGSFTASENHLRHCLSCSKCRKEMGQVEISSCTVDRDTVCGCRKNQYRHYWSENLFQCFNCSLCLNGTVHLSCQEKQNTVCTCHAGFFLRENECVSCSNCKKSLECTKLCLPQIENVKGTEDSGTT
notes: also called Wild-type (TNFRI171); wild-type TNFRI
Relative Activity (Cytotoxicity-neutralizing activity) (fold) (TNF-α [1]): 1 fold

Relative Affinity for Ligand (%) (TNF-α [3]): 547%
B3: TNFRI105-S46 (receptor)
chain: B2 chain with A59G
notes: as for B2

Relative Affinity for Ligand (%) (TNF-α [3]): 459%
B4: TNFRI105-S36 (receptor)
chain: B2 chain with I53M
notes: as for B2

Relative Affinity for Ligand (%) (TNF-α [3]): 403%
B6: TNFRI105-S41 (receptor)
chain: B2 chain with I53H
notes: as for B2

— patent publication US20120277142A1 (HANALL BIOPHARMA, published 2012)
